According to patent publication US20220031857A1 (OSSIANIX, published 2022):
Substitutions are numbered along the chain they refer to.

T1: recombinant mouse TfR2 (mouse, UniProt Q9JKX3 103-798, limits assumed)
T1 construct: Negative control protein
T1 sequence (looked up): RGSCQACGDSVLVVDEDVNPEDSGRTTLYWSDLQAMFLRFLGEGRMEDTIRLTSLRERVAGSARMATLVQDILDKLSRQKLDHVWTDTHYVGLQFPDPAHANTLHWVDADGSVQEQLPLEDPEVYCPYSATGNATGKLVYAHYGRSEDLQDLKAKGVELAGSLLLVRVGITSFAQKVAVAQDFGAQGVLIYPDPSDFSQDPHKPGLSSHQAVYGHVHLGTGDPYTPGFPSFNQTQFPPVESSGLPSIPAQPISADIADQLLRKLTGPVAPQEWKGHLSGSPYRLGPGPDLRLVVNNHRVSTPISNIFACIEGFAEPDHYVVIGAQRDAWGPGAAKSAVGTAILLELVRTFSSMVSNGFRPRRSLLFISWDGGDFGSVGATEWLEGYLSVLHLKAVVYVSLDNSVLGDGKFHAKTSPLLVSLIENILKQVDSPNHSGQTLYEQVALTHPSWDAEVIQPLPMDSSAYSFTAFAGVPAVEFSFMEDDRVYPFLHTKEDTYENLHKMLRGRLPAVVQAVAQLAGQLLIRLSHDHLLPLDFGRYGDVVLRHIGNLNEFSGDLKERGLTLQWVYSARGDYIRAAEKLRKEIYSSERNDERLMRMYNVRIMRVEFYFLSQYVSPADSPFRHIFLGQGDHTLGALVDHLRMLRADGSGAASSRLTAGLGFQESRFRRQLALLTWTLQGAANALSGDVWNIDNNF

B1: SEQ ID NO 30 (VNAR clone displayed on phage) (VNAR)
VNAR: ARVDQTPQTITKETGESLTINCVLRDSNCALSNLYWYRKKSGSTNEESISLGGRYVETVNSGSKSFSLRINDLTVEDSGTYRCNVCQWLQWYGGEMEDVYGGGTAVTVNA
notes: shark VNAR domain on M13 phage; coat-protein fusion not described
B2: SEQ ID NO 26 (VNAR clone displayed on phage) (VNAR)
VNAR: ARVDQTPQTITKETGESLTINCVLRDSNCALSNLYWYRKKSGSTNEENISKGGRYVETVNSGSKSFSLRINDLTVEDSGTYRCNVDVTRCTQSQDVYGGGTAVTVNA
notes: as for B1
B3: SEQ ID NO 27 (VNAR clone displayed on phage) (VNAR)
VNAR: B2 VNAR with I10V, N48S, K51L, D86K, V87H, T88Y, R89V, T91M, Q94K, A102V
notes: as for B1
B4: SEQ ID NO 33 (VNAR clone displayed on phage) (VNAR)
VNAR: ARVDQTPQTITKETGESLTINCVLRDSNCDLSRTYWYRKKQGSTNEESISKGGRYVETVNSGSKSFSLRINDLTVEDSGTYRCNVALYHFTGCSRVQDVYGGGTVVTVNA
notes: as for B1
B5: SEQ ID NO 6 (VNAR clone displayed on phage) (VNAR)
VNAR: ARVDQTPQTITKETGESLTINCVLRDSNCALSSTYWYRKKSDSTNEESISKGGRYVETVNSGSKSFSLRINDLTVEDSGTYRCNVQWWLRCGYFKDVYGGGTVVTVNA
notes: as for B1
B6: SEQ ID NO 4 (VNAR clone displayed on phage) (VNAR)
VNAR: ARVDQTPQTITKETGESLTINCVLRDSNCALSSTYWYRKKSGSTNEENISKGGRYVETVNSGSKSFSLKINDLTVEDSGTYRCNVQFTAALWCEAVLDVYGGGTVVTVNA
notes: as for B1
B7: SEQ ID NO 41 (VNAR clone displayed on phage) (VNAR)
VNAR: ARVDQTPQTITKETGESLTINCVLRDSNCALSSTLWYRTKSGSRNEESISKGGRYVETVNSGSKSFSLKINDLTVEDSGTYRCKVCRQCCVATCDDLSLLCDVYGDGTAVTVNA
notes: as for B1
B8: SEQ ID NO 35 (VNAR clone displayed on phage) (VNAR)
VNAR: ARVDQTPQTITKETGESLTINCVLRDSNCDLSRTYWYRKKSGSTNEESISKGGRYVETVNSGSKSFSLRINDLTVEDSGTYRCNVTWLDCHQCGASDVYGGGTVVTVNA
notes: as for B1
B9: SEQ ID NO 40 (VNAR clone displayed on phage) (VNAR)
VNAR: ARVDQTPQTITKETGESLTINCVLRDSNCALSSTLWYRTKSGSRNEESISKGGRYVETVNSGSKSFSLRINDLTVEDSGTYRCNVQFSYNCNFWKDVYGGGTDVTVNA
notes: as for B1
B10: SEQ ID NO 8 (VNAR clone displayed on phage) (VNAR)
VNAR: ARVDQTPQTITKETGESLTINCVLRDSNCELSSTYWYRKKSGSTNEARISKGGRYVETVNSGSKSFSLRINDLTVEDSGTYRCNVQYFLCHFVGDVYGDGTAVTVNA
notes: as for B1
B11: SEQ ID NO 34 (VNAR clone displayed on phage) (VNAR)
VNAR: ARVDQTPQTITKETGESLTINCVLRDSNCDLSRTYWYRKKSGSTNEESISKGGRYVETVNSGSKSFSLRINDLVVEDSGTYRCNVAVFTRCHNQQDVYGGGTAVTVNA
notes: as for B1
B12: SEQ ID NO 38 (VNAR clone displayed on phage) (VNAR)
VNAR: ARVDQTPQTITKETGESLTINCVLRDNNCALSSTLWYRTKSGSRNEESISKGGRYVETVNSGSKSFSLRINDLTVEDSGTYRCKVWQDSLSQPCESGCLDVYGGGTAVTVNA
notes: as for B1
B13: SEQ ID NO 32 (VNAR clone displayed on phage) (VNAR)
VNAR: ARVDQTPQTITKETGESLTINCVLRDSNCALSNLYWYRKKSGSRNEESISKGGRYVETVNSGSKSFSLKINDLTVEDSGTYRCKVFGMRTHCQWVIYRITDVYGGGTAVTVNA
notes: as for B1
B14: SEQ ID NO 36 (VNAR clone displayed on phage) (VNAR)
VNAR: ARVDQTPQTITKETGESLTINCVLRDSNCDLSRTYWYRKKSGSTNEESISKGGRYVETVNSGSKSFSLRINDLVVEDSGTYRCNVHSVSCIQRLDVYGGGTVVTVNA
notes: as for B1
B15: SEQ ID NO 31 (VNAR clone displayed on phage) (VNAR)
VNAR: ARVDQTPQTITKETGESLTINCVLRDSNCDLSRTYWYRKKSGSTNEESISKGGRYVETVNSGSKSFSLKINDLTVEDSGTYRCNVFLWNNYNPMDVYGGGTAVTVNA
notes: as for B1
B16: SEQ ID NO 28 (VNAR clone displayed on phage) (VNAR)
VNAR: ARVDQTPQTITKETGESLTINCVLRDSNCALSNLYWYRKKSGSTNEESISLGGRYVETVNSGSKSFSLRINDLTVKDSGTYRCNVFSFSCQLLFDVYGGGTAVTVNA
notes: as for B1
B17: SEQ ID NO 3 (VNAR clone displayed on phage) (VNAR)
VNAR: ARVDQTPQTITKETGESLTINCVLRDNNCALSTTYWYRKKSGSTNEENISKGGRYVETVNSGSKSFSLKINDLTVEDSGTYRCNVTGYFRSTCLWRDVYGGGTAVTVNA
notes: as for B1
B18: SEQ ID NO 5 (VNAR clone displayed on phage) (VNAR)
VNAR: ARVDQTPQTITKETGESLTINCVLRDSNCALSSTYWYRKKSGSTNEENISKGGRYVETVNSGSKSFSLKINDLTVEDSGTYRCNVQKGQHLQCHVAVQDVYGGGTAVTVNA
notes: as for B1
B19: SEQ ID NO 9 (VNAR clone displayed on phage) (VNAR)
chain: ARVDQTPQTITKETGESLTINCVLRDSNCALPSTYWYRKKSGSTNEARISKGGRYVETVNSGSKSFSLRINDLTVEDSGTIDARYRLSASAVLYQSYVDVYGGGTAVTVNA
notes: as for B1
B20: SEQ ID NO 37 (VNAR clone displayed on phage) (VNAR)
VNAR: ARVDQTPQTITKETGESLTINCVLRDSNCALSSTLWYRTKSGSRNEESISKGGRYVETVNSGSKSFSLRINDLTVKDSGTYRCNVQQGVVATCTSKRCDVYGGGTAVTVNA
notes: as for B1
B21: SEQ ID NO 29 (VNAR clone displayed on phage) (VNAR)
VNAR: ARVDQTPQTITKETGESLTINCVLRDSNCALSNLYWYRKKSGSTNEESISLGGRYVETVNSGSKSFSLRINDLTVEDSGTYRCKVSTSVPRHYDNCRQRRHDVYGGGTAVTVNA
notes: as for B1
B22: SEQ ID NO 1 (VNAR clone displayed on phage) (VNAR)
VNAR: ARVDQTPQTITKETGESLTINCVLRDNNCALSTTYWYRKKSGSTNEENISKGGRYVETVNSGSKSFSLKINDLTVEDSGTYRCNVRDVQACGNDWVWLDVYGGGTVVTVNA
notes: shark VNAR domain on M13 phage; coat-protein fusion not described; also called clone 1
B23: SEQ ID NO 7 (VNAR clone displayed on phage) (VNAR)
VNAR: B10 VNAR with R69K, Q86L, Y87T, F88T, L89D, C90S, H91Y, F92D, V93L, A102V
notes: shark VNAR domain on M13 phage; coat-protein fusion not described; also called clone 7
B24: SEQ ID NO 2 (VNAR clone displayed on phage) (VNAR)
VNAR: ARVDQTPQTITKETGESLTINCVLRDNNCALSTTYWYRKKSGSTNEENISKGGRYVETVNSGSKSFSLKINDLTVEDSGTYRCNVFGVDNGWWCDVYGGGTVVTVNA
notes: shark VNAR domain on M13 phage; coat-protein fusion not described; also called clone 2
B25: SEQ ID NO 10 (VNAR clone displayed on phage) (VNAR)
VNAR: ARVDQTPQTITKETGESLTINCVLRDSNCALSSTYWYRKKSGSTNEENISKGGRYVETVNSGSKSFSLRINDLTVEDSGTYRCNVVQYPSYNNYFWCDVYGDGTAVTVNA
notes: shark VNAR domain on M13 phage; coat-protein fusion not described; also called clone 10
B26: SEQ ID NO 46 (VNAR clone displayed on phage) (VNAR)
VNAR: ARVDQTPRSVTKETGESLTINCVLRDASYALGSTCWYRKKSGSTNEESISKGGRYVETVNSGSKSFSLRINDLTVEDGGTYRCGVCSDYGLQTTGQQAACGDGTAVTVNA
notes: as for B1

Molecular target: T2, recombinant human TfR1 (transferrin receptor 1) (human, UniProt P02786 89-760)
T2 construct: Bought recombinant His-tagged protein; also called hTfR1
T2 sequence (P02786 89-760 limits assumed): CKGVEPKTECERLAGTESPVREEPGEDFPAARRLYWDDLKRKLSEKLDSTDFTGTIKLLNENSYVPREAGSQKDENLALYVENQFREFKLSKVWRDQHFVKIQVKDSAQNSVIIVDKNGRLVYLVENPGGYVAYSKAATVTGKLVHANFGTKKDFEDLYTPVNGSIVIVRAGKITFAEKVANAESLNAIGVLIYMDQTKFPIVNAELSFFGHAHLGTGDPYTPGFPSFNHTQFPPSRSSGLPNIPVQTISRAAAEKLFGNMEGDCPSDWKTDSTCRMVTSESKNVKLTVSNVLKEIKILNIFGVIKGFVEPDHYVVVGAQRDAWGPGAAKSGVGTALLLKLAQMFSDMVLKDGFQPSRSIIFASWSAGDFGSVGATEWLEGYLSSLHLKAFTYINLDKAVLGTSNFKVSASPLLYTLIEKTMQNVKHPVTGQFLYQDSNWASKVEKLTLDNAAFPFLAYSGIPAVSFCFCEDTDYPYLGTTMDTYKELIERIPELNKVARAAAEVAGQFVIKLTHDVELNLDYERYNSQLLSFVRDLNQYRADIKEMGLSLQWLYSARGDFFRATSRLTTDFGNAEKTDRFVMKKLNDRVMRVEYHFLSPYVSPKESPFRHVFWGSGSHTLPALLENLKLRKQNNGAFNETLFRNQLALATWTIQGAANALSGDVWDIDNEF
Assay: phage ELISA

Binder	binding result
B1	binds
B2	binds
B3	binds
B4	binds
B5	binds
B6	binds
B7	binds
B8	binds
B9	binds
B10	binds
B11	binds
B12	binds
B13	binds
B14	binds
B15	binds
B16	binds
B17	binds
B18	binds
B19	binds
B20	binds
B21	binds

Molecular target: T3, recombinant mouse TfR1 (transferrin receptor 1) (mouse, UniProt Q62351 89-763)
T3 construct: Bought recombinant His-tagged protein; also called mTfR1
T3 sequence (Q62351 89-763 limits assumed): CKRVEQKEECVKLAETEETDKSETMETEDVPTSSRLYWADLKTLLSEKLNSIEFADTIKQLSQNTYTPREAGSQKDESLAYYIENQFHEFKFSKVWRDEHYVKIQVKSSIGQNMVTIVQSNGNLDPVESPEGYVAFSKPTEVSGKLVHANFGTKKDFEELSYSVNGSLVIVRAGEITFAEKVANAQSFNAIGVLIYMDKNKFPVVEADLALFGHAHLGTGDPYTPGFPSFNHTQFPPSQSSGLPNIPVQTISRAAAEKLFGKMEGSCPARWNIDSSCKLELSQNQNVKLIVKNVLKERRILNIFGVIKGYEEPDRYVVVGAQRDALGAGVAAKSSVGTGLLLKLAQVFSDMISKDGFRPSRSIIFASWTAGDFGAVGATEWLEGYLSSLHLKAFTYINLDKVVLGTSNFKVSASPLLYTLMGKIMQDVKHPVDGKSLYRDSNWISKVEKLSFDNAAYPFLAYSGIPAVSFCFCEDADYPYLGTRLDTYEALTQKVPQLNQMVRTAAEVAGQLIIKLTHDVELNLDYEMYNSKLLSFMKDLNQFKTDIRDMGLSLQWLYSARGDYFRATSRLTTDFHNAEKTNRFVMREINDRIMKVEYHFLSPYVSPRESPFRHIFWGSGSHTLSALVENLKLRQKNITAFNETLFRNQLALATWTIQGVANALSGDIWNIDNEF
Assay: phage ELISA

Binder	binding result
B1	binds
B2	binds
B3	binds
B4	binds
B5	binds
B6	binds
B7	binds
B8	binds
B9	binds
B10	binds
B11	binds
B12	binds
B13	binds
B14	binds
B15	binds
B16	binds
B17	binds
B18	binds
B19	binds
B20	binds
B21	binds

Molecular target: T1, recombinant mouse TfR2
Assay: phage ELISA

Binder	binding result
B4	no binding
B7	no binding
B8	no binding
B22	no binding
B9	no binding
B23	no binding
B24	no binding
B11	no binding
B12	no binding
B25	no binding
B13	no binding
B14	no binding
B26	no binding
B20	no binding

Molecular target: T4, human serum albumin (human, UniProt P02768 25-609)
T4 construct: Negative control protein; also called HSA
T4 sequence (P02768 25-609 limits assumed): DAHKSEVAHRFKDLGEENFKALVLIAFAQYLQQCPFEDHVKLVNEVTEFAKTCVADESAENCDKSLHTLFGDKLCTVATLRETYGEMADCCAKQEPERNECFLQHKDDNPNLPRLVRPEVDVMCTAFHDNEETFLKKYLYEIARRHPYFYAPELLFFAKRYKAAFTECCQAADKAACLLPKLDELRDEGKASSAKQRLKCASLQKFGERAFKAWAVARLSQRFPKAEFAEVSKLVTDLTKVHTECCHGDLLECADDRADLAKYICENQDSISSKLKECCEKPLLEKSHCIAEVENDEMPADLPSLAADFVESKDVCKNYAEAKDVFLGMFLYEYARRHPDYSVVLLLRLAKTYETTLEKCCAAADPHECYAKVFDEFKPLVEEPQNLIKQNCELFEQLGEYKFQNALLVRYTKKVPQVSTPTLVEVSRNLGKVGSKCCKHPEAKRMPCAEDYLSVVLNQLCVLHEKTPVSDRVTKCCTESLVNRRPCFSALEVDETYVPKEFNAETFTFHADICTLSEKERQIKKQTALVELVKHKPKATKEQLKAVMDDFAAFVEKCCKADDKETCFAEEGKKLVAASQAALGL
Assay: phage ELISA

Binder	binding result
B5	no binding
B6	no binding
B22	no binding
B10	no binding
B23	no binding
B24	no binding
B25	no binding
B17	no binding
B18	no binding
B26	no binding
B19	no binding
